From paper doi:10.1101/602425

Target: GST-Rac1A, active (GTPγs-bound) (Dictyostelium) (UniProt P34144)
Test: pull-down

immunoblot quantification of binding (%): 1.9%
Substance: GFP-WASP (wild type Dictyostelium WASP) (natural protein)
